Reference: publication PMC10494239

Biological target: Interleukin-1 receptor 1 on human umbilical vein endothelial cells (human (endogenous in HUVEC)) (UniProt P14778)
UniProt P14778, sequence (P14778 18-569): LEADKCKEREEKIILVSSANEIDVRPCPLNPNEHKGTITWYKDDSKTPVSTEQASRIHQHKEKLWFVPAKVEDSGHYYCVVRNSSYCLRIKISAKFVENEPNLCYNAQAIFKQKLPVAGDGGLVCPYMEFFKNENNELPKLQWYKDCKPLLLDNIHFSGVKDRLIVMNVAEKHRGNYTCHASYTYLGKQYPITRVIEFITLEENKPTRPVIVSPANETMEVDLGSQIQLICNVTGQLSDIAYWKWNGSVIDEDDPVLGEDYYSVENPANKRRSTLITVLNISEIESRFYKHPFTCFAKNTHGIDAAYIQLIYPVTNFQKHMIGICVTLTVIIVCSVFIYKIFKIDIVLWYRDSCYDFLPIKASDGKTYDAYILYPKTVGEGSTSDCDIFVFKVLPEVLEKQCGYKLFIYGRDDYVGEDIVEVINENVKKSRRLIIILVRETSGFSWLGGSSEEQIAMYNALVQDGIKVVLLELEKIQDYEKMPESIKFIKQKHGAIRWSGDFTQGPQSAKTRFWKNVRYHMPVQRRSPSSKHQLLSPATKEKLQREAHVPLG

cell-surface Interleukin-1α on human primary monocytes (from UniProt P01583 113-271) (ligand)
percent VCAM1-positive HUVECs (flow cytometry) after 4h with unstimulated monocytes (% VCAM pos. cells): 2.5 | percent VCAM1-positive HUVECs (flow cytometry) after 4h with upLPS-stimulated monocytes (% VCAM pos. cells): 25.9 | percent VCAM1-positive HUVECs (flow cytometry) after 4h with upLPS-stimulated monocytes, HUVECs pre-treated 1h with neutralizing IL1R1 antibody (10 µg/ml, AB-269-NA, R&D Systems) (% VCAM1 pos. cells): 18.6 | percent adhesion of calcein-labeled, LPS-pre-stimulated monocytes to HUVECs (remaining fluorescence after washing): 6.7% | percent adhesion of calcein-labeled, non-stimulated monocytes to HUVECs (remaining fluorescence after washing): 3.5%
